Source: article PMC7738170

Experiments:
[1] = biological target: T1, 6xHis-DnaA (Mtb) (Mycobacterium tuberculosis) (UniProt P9WNW3); assay: EMSA
T1 sequence: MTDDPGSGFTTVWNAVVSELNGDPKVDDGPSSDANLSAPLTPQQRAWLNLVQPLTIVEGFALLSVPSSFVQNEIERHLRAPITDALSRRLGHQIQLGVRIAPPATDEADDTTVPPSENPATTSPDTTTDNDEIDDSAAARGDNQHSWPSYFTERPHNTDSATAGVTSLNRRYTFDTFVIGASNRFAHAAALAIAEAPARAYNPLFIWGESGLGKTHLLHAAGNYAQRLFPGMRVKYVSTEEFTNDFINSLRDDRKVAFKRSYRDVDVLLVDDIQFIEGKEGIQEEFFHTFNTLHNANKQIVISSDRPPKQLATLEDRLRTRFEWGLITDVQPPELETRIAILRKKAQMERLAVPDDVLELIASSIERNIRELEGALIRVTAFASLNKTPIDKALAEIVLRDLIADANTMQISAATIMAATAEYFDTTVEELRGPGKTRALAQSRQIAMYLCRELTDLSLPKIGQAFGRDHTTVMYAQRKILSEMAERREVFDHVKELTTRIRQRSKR

[2] = test system: 6xHis-DnaA (Mtb) (Mycobacterium tuberculosis); assay: EMSA

“CCCTACACGACGCTCTTCCGACCCTCTCACCACTGCAGACAAAGTTATCCACAGACGCTATCAACAGTGGGGATGAATCACATGCGTGTGATTGAGTGACCAAAAGGTTGCTGGCACAGTAACGACCCGACCAGAATATGAATTCATTCTATCGGCGGCG (double strand) [Rv0010c-Rv0011c intergenic fragment]” was tested, and the binding [1] was “binds”.

oriC fragment showed a Kd [2] of 70 nM.
